According to US20140057847A1:

Biological target: rat growth hormone releasing hormone receptor (rat) (UniProt Q02644)
Assay: radioligand competition binding of radioiodinated JV-1-42 to membrane fractions of ischemic rat heart

Sequence of UniProt Q02644 (Q02644 23-464): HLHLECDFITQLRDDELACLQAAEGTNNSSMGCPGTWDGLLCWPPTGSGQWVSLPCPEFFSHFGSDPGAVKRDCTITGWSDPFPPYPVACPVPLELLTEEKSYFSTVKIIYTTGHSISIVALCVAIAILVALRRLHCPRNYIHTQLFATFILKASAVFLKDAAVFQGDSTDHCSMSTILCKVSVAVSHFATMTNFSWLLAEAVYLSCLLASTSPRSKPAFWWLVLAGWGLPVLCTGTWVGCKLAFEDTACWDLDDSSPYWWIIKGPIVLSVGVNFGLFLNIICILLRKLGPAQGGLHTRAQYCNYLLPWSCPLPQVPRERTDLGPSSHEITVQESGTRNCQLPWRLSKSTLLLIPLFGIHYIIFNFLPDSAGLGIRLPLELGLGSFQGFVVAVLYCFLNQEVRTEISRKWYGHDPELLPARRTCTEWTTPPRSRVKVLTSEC

Bmax (fmol/mg protein): 51.3
Kd: 0.86 nM
Substance: GHRH antagonist JV-1-42 (radioiodinated) (peptide)
